From a protein production outcome set (Wang et al. 2014) come the findings set out here.
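Also: failed if final PepcDB status was selected cloned or expressed and not failed if soluble or beyond.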

This data set can be described thus: label from the status in PepcDB records.
“MEKVTKMISRMMVRVVTVAFALSLVAVACHEAEARAGGGRSFGSRGTRTYRPPTRTVDPAPASRPQPAPAVPQTFPQQRQGGSFLRSMAGGIVGGLLGGMLFRSLGFAGPGAGGVGLFDILLIGGILYLVYRFVASRRREAAATAGRAPDWSREEPVTPQQYRYGQPAESVPAAGADSGLAHVRQMDGSFSEEQFRQLAQDVFFRVQGAWTRRDLSSAREVLAPEMERALQGDVAELKARGQVNRLENIAVRQVELVEAWQEEGCDFITVRFLANLLDYTTDEEGRVLSGSDREPVKFEEFWTFTRPVGPNPWKLSAIQQA”: the protein production result is reported as “failed”.
Next, “MKKNYMKALVVATTLAIPFATYSTPALAALKVEANQSVAAASDRTYDTEIKIYKDQKDEPSMVSQYIKDPKVTIAAGKKIVTVTMQDSDYFQYLRIEDKNQPGVFHDVKVLSEDKRKNGTKVVQFEIGEFEKKHNMQMHILIPAIGYDHKYQVQFEIKDPTVGNKETEKPDDNSNSGNTETDNPVDNQNMITDNKLRELVNKKVFNRKDLNTPITKEDLLQVKDLFLNTNEILDYSALKYMPNLKSLTVANAKIKDPSFFANLKQLNHLALRGNEFADVTPLVKMDNLESLDLSNNKITNVAPLTEMKNVKSLFLSGNQIEDVTALAKMEQLDYLNLANNKITNVAPLSNLKNVTYLTLAGNQIEDIKPLYTLPLKDLVLTRNKVKDLSGIDQLNQLQELWIGKNEITDVTPLSKMTQLKILNLPNNELKDITPLSSLVNLQKLDLEANYISDLSPVSNLKKLVFLSFVANEIRDVRPVIELSKTAYINVQNQKVFLEETEVNKEVKVPIYEKDGEISTKIRLKSDNGTYSNGVVKWSTPGEKVYEFGVKDPFADTGIFFTGSVIQNVVESKDGNTSKEDEKTEVVEFKDVPKGHWSEEAINYLAKEKLFIGYGNGEFGFGDNITRGQVALLIQRYLKLENNLEQKTAFTDTKGNMYETAIDAVVQAGIMTGYGNGMFRPDGVLTRYEMSVVLQRVFQLKENENSAENFKDVPNGHWAKGYVKALVDNKISKGDGEGNFLGDNFVTREQYAQFLYNAIKK”: “failed”.
Next, “MPIITKNTDTTCQTPPLLSIICPAYNQEAFVAQALDGFLSQQTRFNYEILINDDASTDGTARIIAQYAERHPTIIRAFYQQVNQYSQGLPCVPDLFAEARGRYIAYCEADDYWTDPRKLQLQVDFLESHPDYVITYHDAVAFDENGEYGVQLQGHLRADATALELQQARRLSTLTTCFRNVFSTMPPELNIRVAPLNDMCWWSLLGAHGKGKFMADIKPAAYRLHAGGVFSMRSDKRKLHMNLQTCSSLANYYNLQGNQALYEYFLMQTVCLSLAALTPSHKLQTLWQVASNVVVNLGRRLLPTTGKAHVQ”: “failed”; “MRMLKTGLLNFISVLVKVITGLFLNKIMALYVGPAGYALVSQFQNGINFITTFASGAINTGVTKYTAEYANDKGKTSDLFKCITLLAITCCSFFSLTIIVFSEYFSLKLLGTINYSGVIKWFAATLFLFVANSILVSIINGLKEFKLYVLINIFGSLFSLLFSGILIYFFNLKGALIAFATNQSIVFFMTFYLIISKKMVSLKSFIGMPSDFYFIKKLIQYALMAIVSAFCVIYMQIIIRTYIANHFGWVQAGIWDGVWRISSLYLMLVTVPLGVYYLPRLAELHTKSLLLREIKQGYLFLLPIIIISAIIIYYLRYFIIELLFSKSFVSMGDIIGWQLLGDIFKIGSWLLSYIMLSKALTKTYIITEITTALLFLGGVHYLSPLYGLKGVTLAYCITYFCYWIMMIVVIISYFKGNFRNE”: “failed”.
With “DITERKQAESALQESEARFQAFMNNSPSASWITDDHGRMLYLSQTYVRTFQLPFDKVEDVTGKTVFELYTPEVAQPFLDNIHRVAQTQQILETIEKAPRLDGTLGDFLVYKFPLPATT” the entry was “failed”.
With “MGSSHHHHHHSSGLVPRGSTETSQQLQLRVQGKEKHQTLEVSLSRDSPLKTLMSHYEEAMGLSGRKLSFFFDGTKLSGRELPADLGMESGDLIEVWG”, the protein production result is given as “not failed”.
For “MEWEIVNLDMTFKVDAPVEEVFRAWTKPSLFKQWFMTTEETNKVAKNQFEINGDWEIIDVREGVEYRAIGTYIDIVSPYKLTFSFKMPQFSELEDIITVEFVDLTGATEVKFNQGIKVPFEGDTNDFEADKTEVKKEMETGYNLMFERLKQLCEG”, the protein production entry is “failed”.
Next, “MILINKRAEKQDYQTILAIWEKSVIVTHDFLTAEDRQFYKEQIPLFLDNVELFLWFAGEEVIGFSGTSERELDMLFLDPVATGNGYGSQILGWLIENKRINLVDVNEQNENATRFYLKHGFVVSSRSDLDGFGKPYPILQLQLKERVNGV”: “not failed”; “MAYNSNSNNNNNNIVVVFDFDKTIIDVDSDNWVIDELGFTDLFNQLLPTMPWNTLMDRMMKELHDQGKTIEEIKQVLRTIPIHPRVVPAIKSAHDLGCELRIVSDANMFFIETIVEHLGISELFSEINSNPGYVDERGTLKISPYHDFTKSPHSCSCGTCPPNMCKGLIIERIQQSLAKEGKKKMIYLGDGAGDYCPSLKLNTEDYVMPRKNFPVWDLISQNPMLIKAAIREWTDGQSMEMILIGTIEEIRLEEEKEKMLTSAENNCKMQTISIGINNVHHEPILPRALRVSQSS”: “failed”.
With “MAELFIPDEPIIEVTAVLSAILILVLVLPFKVRIVEENLEAFFFIMGLLGVATIYYYGILPTPDSLIGLFIKAFKTPLAIAHVGPIPIGIVQAVVFFGLVFYFFHKHIYSILASTMEKVGIPVFAFILTFLLGLISSVISVIVTAVILAEIAAALNISRERKVKYVVYASFAVGIGAALTPLGEPLSTIAISKLNAHFTYLIDILGVYIVPGIAVSAVAAAYSLRGEVYREGLVKFVYEESINEILLRGFRVFLFVAALELLGASFTPMVKWYFAQLPSWALYWINTISAVVDNATLTAAEMGPFLTEEQIRSALMSLLISGGMLIPGNIPNIVAAGRLRITMNEWARVGVPFGIALLLAYFIVIEVLDIHITLSF” the entry was “failed”; with “MIRVLFAFIILLLSVFLGIQLNKDPGYVLIAINNWTIETTLWVSVFGLFFLFFLIYGLVQFCNKITRMPGMVNKWHSRRLAQKAQATTRKGLIEYSEGYWQKAKNHLIQALPNTDTPLLNYLTAARAAQKMGDSKLRDHYLREAQQSMPEAKIAVELTQAQLQLANHQWEQALATLKHLQDLAPRHPYVLKLLMNLYEEIKDWQQLIALLPDLKKNHIISDQAFEQLQKNTYLQAMIDLAKHNQSDGITKLYQTLPKTLVNDTAITAEYARFLIRNQDYDQAEYHLKRCLRKELDNRLIELYSLLPCEENQLLFAESLLKKNPHSAALYLCLGRMCLSRHLWGKAKHYLEQSIELNPTPVAFIELGKLHEKLNDPLSSGSCYKKGLELITKDELS”, “failed”; with “MPGKLTATILTRNEAANIGDCIDSLAQLADEVIVLDSGSTDATRDIARARGANVIEDDGPWPGFGPQKNRALDRATGEWVLSIDADERVPPELAQEIRTAMARADADAYAIPRLSQFCGAWVHHSGWRPDHVIRLFRRGKARFSENLVHESLQVTGNVARLRTSLLHYSYTSMDQVHRKSAQYAEAGARDLTQRGKHIGALSPVLHGTWAFVRTLVLRRGFLDGGTGLAIARMNATVSYRKYRRARELASGANHRPLEHHHHHH”, “failed”.
Turning to “MRGPFMGFSIEFGEANLDKLGVRRTSERVSQPPLTLKNYALSRSIGRGNTSDVRLATGPDGREVAIKLPLPATLRQHDAAERFGNEVRLTLQFRHPHVVRGFAGTPFGPGAFLALFYYPDGPLSNRLRGQPLPNEEALRILADIAAALAYLHRLGAVHQDVKPQNVYVSGGRAALGDLGSAYFVAQGSKTSGSPYYMAPEVYHGESTSSASDVYSLGVMAWELLTGARPFSGNSYEELMVAHLSRFPAPLASLRPELPRALSRLLDRTFAKRPHERPTADALRRALLEALGETPQEEDLPAEEVPLASQQAGRHTAAPRVTGPQGPAETPAQPERVRPARRGWNPFRRKG”, the protein production result is listed as “failed”.
Turning to “MRIAAALLAIALTGLSGAVWAETSAAIVARKPDLFHPETGLRIDRQRAPVPEDIPPPARKISALWARKLIARGALALDVYGAAQSRYDELDGTWLVPEPRQSLPGAVWLPEVGRGVLDAALQVYLERELERLTGGSKARAIVVFCVADCWMSWNAAQRIAGMGYLQVYWFPLGTDGWRELGWPLEPVEPVPVPVD”, the protein production result is “failed”.
With “MAPFTLYTHAGPGPNPVKVAMALEHLGLDYDCIPLAFGEGKGTVKDPEYTSKVNPNGRVPGLIDHENNDFTVFESAAILQYLAEKTIQYDTSGKLAGSTPEERATVNKWLAWQVSGLGPYQGQLVWFLAFHEGAHGEKPNGSVIARYQAEVERLRSVLEKHLASAENGFVALGRLTIADFAILPWLKISVLAGSALKSFEEYPAINAYIKKLDALPEVQAAYKKAVPPMQ” the entry was “failed”; with “MGNLSLGELELTVLYDEERYDIVEQTETVQVDLEGPRGVLTVFRFARPSYEVFVDLTEAGEGSHTVDVEHRGFPGDLAVTVEPRLEHHHHHH”, “failed”; with “MFKELHPNIRARILIQFLSKIIGSMIFPFMAIYFSMEINSKVAGILLMINVLAQFLAGMYGGHLADIIGRKKLMVAGELLKVFAFLGMVLCNSPVFHSPWITFVMLLLIGVAQGLINPAGEAMLIDVSTPENRSFMYSVSYWANNLSMMIGIIVGGWFFIDYLFPLLVALFIMSFVTAWLTISLISETLKQKAVLKKGSYGLVGMLKNYGQVLHDCRFLLYTLGGIAVMSIEFQRSNYISVRLAEDFQALLVHFGPLGNITLNGVQIVSVLTAVNTLFIVLFTVPVARFVTKRAQQPIMYVGFTLFAIGFAVCAFANNLAVLLLATAVLSIGELLYVPTRQTILAAIVDDNRRGAYMAFNGIIFQIGKMIGSVSLVFAPFIGKYGMATFTILLGVLSIVFSAAALKSGWKKVLAK”, “failed”.
With “MARMKARSGKGRRVARDTWKTKSWYEIRTPQSFGGDLLGTTPANDPSNLLGRVTETSLKDLTNDHSKHMVRLYFKVDGVAGNNATTQFVGHNTTREYLKSLVRRRRSKIVTITDIRTKDGYKIRVKAMVLTAVRARDHHKTDIRKKMEQIIVNMARNSTFPEFVQAMLLGGLGSKIYATCKRIMPMKRVEIYKSEVMEFGKSATPVVEAPAETEVKEEVKKEVVETQTE” the entry was “failed”.
With “MTDSKYISIKGARVNNLKNIDVNIPRNKLVVITGLSGSGKSSLAFDTLYAEGQRRYVESLSSYARQFLGRMSKPECDFIKGIPPAIAIEQKVNSRNPRSTVGTSTEIYEYLRLLYARVGKTYSPVSGEEVKKHSIEDIVNCMLSYPEGTRYTVLTQIYLHDGRTLEQQLEIDRKQGFNRLEVNGEMVRIDEYAAGKEDVVYLLVDRMTAAKSKDAISRLTDSAETAMYEGDGMCMLRFYQPDGTTRLHTFSTKFEADGMTFEEPNDQMFSFNSPIGACPVCEGFGKVIGIDEHLVVPNRSLSVYDGAIVCWRGEKMGEWREELIHNAEKFNFPIFTPYYELTDEQRRVLWEGNQYFHGINDFFKMLEENQYKIQYRVMLARYRGKTLCPKCHGTRLKPEAGYVRVGGKNISELVDLPITELQKFFDSLTLNEHDQAVARRILTEINSRIRFLIDVGLGYLTLNRLSNSLSGGESQRINLATSLGSSLVGSLYILDEPSIGLHSRDTDRLVHVLRQLQQLGNTVVVVEHDEEIIRAADYIIDIGPNAGRLGGQVVYEGDMKDLKKGSNSYTVKYLLGEETIPVPEHRRPWNNYIEIKGARENNLKGVDARFPLNVMTVVTGVSGSGKSTLVRDIFYRALKRELDECSERPGEFVSIEGDLRNLRNVEFVDQNPIGKSSRSNPVTYIKAYDEIRKLWADQPLAKQMGYTAGHFSFNNEGGRCEECKGDGTITVEMQFMADLVLECESCHGKRFKADTLEVKFQDKNIYDILEMTVNQAIEFFTEHGQKKVVKKLIPLQDVGLGYIKLGQSSSTLSGGENQRVKLAYYLSQEKADPTLFIFDEPTTGLHFHDIRKLLDAFDALIRRGHSIVIIEHNMDVIKCADYVIDLGPEGGDKGGNIVATGTPEEVAACAASYTGQFLQEKLNHL” the entry was “failed”.
Take “MKILIVSNTALGDTILSTPLFRETRLALPKAHITALLNPVNAMLFETNPYLDKIELYGGRWRGFLGAWWKLWRRGFDVALLGHSNDPQITPLCLLLGISKIIKIPNHKNPWQRFHHNPLEHHHHHH”: the protein production result is listed as “failed”.
